Among the data in US20250043004A1 (Janssen / Centocor, published 2025) are EC50 values, retold here.

The target of experiment [1] is T1, BCMA (human, UniProt Q02223 1-184).
T1 construct: whole, on cells; On NCI-H929 myeloma cells, which also carry CD28; also called B-cell maturation antigen; TNFRSF17
T1 sequence (looked up): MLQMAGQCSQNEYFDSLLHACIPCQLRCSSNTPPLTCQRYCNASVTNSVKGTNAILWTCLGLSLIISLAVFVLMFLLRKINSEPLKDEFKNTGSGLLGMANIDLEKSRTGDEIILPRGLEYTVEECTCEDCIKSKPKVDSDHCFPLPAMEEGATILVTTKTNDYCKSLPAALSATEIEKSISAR
The experiment can be described thus: flow cytometry, H929 cells; antibody has no CD28 arm.

The target in experiment [2] is T2, T cell receptor Vβ17 on human T cells (human).
T2 construct: whole, on cells; Vβ17+ fraction (about 5%) of human pan T cells, αβ-enriched T cells or M1-stimulated T cells; also called TCR Vβ17; Vb17
In words: flow cytometry, human pan T cells, donor 1; antibody has no CD28 arm.

Experiment [3] deals with T2, T cell receptor Vβ17 on human T cells. In words: flow cytometry, human pan T cells, donor 2; antibody has no CD28 arm.
The target in experiment [4] is T3, CD28 (human, UniProt P10747 19-220).
T3 construct: whole, on cells; On human pan T cells and on H929 myeloma cells; the assay field says which; also called Cluster of Differentiation 28
In words: flow cytometry, human pan T cells.
Description: Post Pan T cell isolation. 0.1×10⁶ cells were seeded per well of a 96 well V-bottom plate. Cells were stained with the fixable violet live/dead stain (L34955, Thermofisher) for 20 mins on ice in dark according to the manufacturer's protocol. Post staining cells were washed with FACS buffer (PBS+2% FBS) by spinning at 1500 rpm for 5 mins. Supernatant was discarded and cells were suspended in 100 μl the respective antibody dilutions with a starting concentration of 5 g/ml and 3-fold serial dilutions. Antibody dilutions were prepared in FACS buffer. Cells were incubated with the antibody dilutions for 30 mins at 37° C. At the end of the incubation period, cells were washed twice with FACS buffer as above followed by staining with PE conjugated Goat polyclonal antibody to human IgG (ab98596, Abcam) at a 1:50 dilution in FACS buffer. Cells were incubated with the secondary antibody for 30 mins on ice. At the end of incubation period the cells were washed with FACS buffer as above. […] Cells were pelleted and resuspended in FACS buffer for acquisition on the NOVOCYTE flow cytometer (ACEA Biosciences). For binding assays using the H929 cells, 0.1×10⁶ H929 cells were seeded per well of a 96 well V-bottom plate and stained as above. Samples were analyzed by gating on the live cells and percentage binding was obtained by subtracting the background fluorescence from the secondary only control. […]

The target in experiment [5] is T1, BCMA. The experiment can be described thus: flow cytometry, H929 cells (BCMA+, CD28+); whole-cell EC50, antibody has BCMA and CD28 arms.
Description: (§1) Post Pan T cell isolation. 0.1×10⁶ cells were seeded per well of a 96 well V-bottom plate. Cells were stained with the fixable violet live/dead stain (L34955, Thermofisher) for 20 mins on ice in dark according to the manufacturer's protocol. Post staining cells were washed with FACS buffer (PBS+2% FBS) by spinning at 1500 rpm for 5 mins. Supernatant was discarded and cells were suspended in 100 μl the respective antibody dilutions with a starting concentration of 5 g/ml and 3-fold serial dilutions. Antibody dilutions were prepared in FACS buffer. Cells were incubated with the antibody dilutions for 30 mins at 37° C. At the end of the incubation period, cells were washed twice with FACS buffer as above followed by staining with PE conjugated Goat polyclonal antibody to human IgG (ab98596, Abcam) at a 1:50 dilution in FACS buffer. Cells were incubated with the secondary antibody for 30 mins on ice. At the end of incubation period the cells were washed with FACS buffer as above. […] Cells were pelleted and resuspended in FACS buffer for acquisition on the NOVOCYTE flow cytometer (ACEA Biosciences). For binding assays using the H929 cells, 0.1×10⁶ H929 cells were seeded per well of a 96 well V-bottom plate and stained as above. Samples were analyzed by gating on the live cells and percentage binding was obtained by subtracting the background fluorescence from the secondary only control.
Experiment [6] concerns the target T3, CD28. The experiment is described as above.
Description: as §1
Experiment [7] addresses T3, CD28. The experiment can be described thus: flow cytometry, human pan T cells, donor 1.
Description: (§2) Binding assay. […] Post Pan T cell isolation. 0.1×10⁶ cells were seeded per well of a 96 well V-bottom plate. Cells were stained with the fixable violet live/dead stain (L34955, Thermofisher) for 20 mins on ice in dark according to the manufacturer's protocol. Post staining cells were washed with FACS buffer (PBS+2% FBS) by spinning at 1500 rpm for 5 mins. Supernatant was discarded and cells were suspended in 100 μl the respective antibody dilutions with a starting concentration of 5 g/ml and 3-fold serial dilutions. Antibody dilutions were prepared in FACS buffer. Cells were incubated with the antibody dilutions for 30 mins at 37° C. At the end of the incubation period, cells were washed twice with FACS buffer as above followed by staining with PE conjugated Goat polyclonal antibody to human IgG (ab98596, Abcam) at a 1:50 dilution in FACS buffer. Cells were incubated with the secondary antibody for 30 mins on ice. At the end of incubation period the cells were washed with FACS buffer as above. […] Cells were pelleted and resuspended in FACS buffer for acquisition on the NOVOCYTE flow cytometer (ACEA Biosciences). […] Samples were analyzed by gating on the live cells and percentage binding was obtained by subtracting the background fluorescence from the secondary only control.
The target of experiment [8] is T3, CD28. In words: flow cytometry, human pan T cells, donor 2.
Description: as §2
Experiment [9] concerns the target T4, PSMA (human, UniProt Q04609 1-750).
T4 construct: whole, on cells; On LnCaP and C4-2B cells; also called prostate-specific membrane antigen
In words: flow cytometry, C4-2B cells.

Experiment [10] has as its target T4, PSMA. The experiment can be described thus: flow cytometry, LnCaP cells.
For experiment [11], the target named is T3, CD28. In words: flow cytometry, human pan T cells, donor 2. This is another data set of the same source.
In experiment [12] the target is T1, BCMA. The experiment can be described thus: flow cytometry, H929 cells (BCMA+, CD28+); whole-cell EC50, antibody has BCMA and CD28 arms. This is another data set of the same source.
Experiment [13] concerns the target T3, CD28. The description is as above. The source holds these as a separate data set.
Experiment [14] concerns the target T3, CD28. The experiment can be described thus: flow cytometry, human pan T cells, donor 1. This is another data set of the same source.
Experiment [15] has as its target T3, CD28. In words: flow cytometry, H929 cells; antibody has no BCMA arm.

T2 sequence (A0A075B6N1 22-114): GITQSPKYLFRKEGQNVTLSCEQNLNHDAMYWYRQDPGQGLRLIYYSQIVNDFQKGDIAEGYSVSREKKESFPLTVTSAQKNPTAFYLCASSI
T4 sequence (Q04609 whole entry): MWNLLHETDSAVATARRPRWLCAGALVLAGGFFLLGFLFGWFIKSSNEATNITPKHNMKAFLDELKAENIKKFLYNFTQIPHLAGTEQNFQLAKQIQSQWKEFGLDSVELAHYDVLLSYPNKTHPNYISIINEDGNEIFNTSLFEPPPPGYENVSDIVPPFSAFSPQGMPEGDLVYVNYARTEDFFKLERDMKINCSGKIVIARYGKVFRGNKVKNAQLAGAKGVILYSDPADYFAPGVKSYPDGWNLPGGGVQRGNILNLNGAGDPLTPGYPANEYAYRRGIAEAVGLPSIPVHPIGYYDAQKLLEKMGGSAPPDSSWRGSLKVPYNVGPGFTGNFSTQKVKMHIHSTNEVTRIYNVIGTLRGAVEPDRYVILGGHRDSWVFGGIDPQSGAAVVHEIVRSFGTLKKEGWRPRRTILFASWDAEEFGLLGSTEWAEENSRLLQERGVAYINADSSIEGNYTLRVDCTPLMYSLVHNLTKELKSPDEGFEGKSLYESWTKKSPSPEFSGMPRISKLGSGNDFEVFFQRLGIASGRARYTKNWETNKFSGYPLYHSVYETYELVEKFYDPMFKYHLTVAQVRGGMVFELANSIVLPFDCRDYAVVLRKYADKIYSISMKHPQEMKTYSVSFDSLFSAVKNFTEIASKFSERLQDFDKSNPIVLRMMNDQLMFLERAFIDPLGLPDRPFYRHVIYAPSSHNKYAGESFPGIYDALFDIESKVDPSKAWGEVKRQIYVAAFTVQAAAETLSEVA

B1: VB28B40 (bispecific antibody, human IgG1, kappa, L234A L235A)
scFv: DIQMTQSPSSLSASVGDRVTITCRSSQSLVHSSGNTYLHWYQQKPGKAPKFLIYKVSNRFSGVPSRFSGSGSGTDFTLTISSLQPEDFATYYCSQSTHVPFTFGQGTKLEIKGGSEGKSSGSGSESKSTGGSQVQLQESGPGLVKPSETLSLTCTVSGYSITSGYFWNWIRQPPGKGLEWIGYISYDGSNNYNPSLKSRVTISRDTSKNQFSLKLSSVTAADTAVYYCASPSPGTGYAVDYWGQGTLVTVSSEPKSSDKTHTCPPCPAPEAAGGPSVFLFPPKPKDTLMISRTPEVTCVVVSVSHEDPEVKFNWYVDGVEVHNAKTKPREEQYNSTYRVVSVLTVLHQDWLNGKEYKCKVSNKALPAPIEKTISKAKGQPREPQVYTLPPSREEMTKNQVSLWCLVKGFYPSDIAVEWESNGQPENNYKTTPPVLDSDGSFFLYSKLTVDKSRWQQGNVFSCSVMHEALHNHYTQKSLSLSPGK
heavy: not shown
light: not shown
notes: Vβ17 × null × BCMA, human IgG1; not used; also called Vβ28B40
Consider B1, for which the EC50 in experiment [1] came out at 0.121 µg/mL; in [2], 1.12 µg/mL; in [3] it was 1.21 µg/mL.

B2: B17B619 (bispecific antibody, human IgG1)
heavy: QVQLQESGPGLVKPSETLSLTCTVSGYSITSGYFWNWIRQPPGKGLEWIGYISYDGSNNYNPSLKSRVTISRDTSKNQFSLKLSSVTAADTAVYYCASPSPGTGYAVDYWGQGTLVTVSSASTKGPSVFPLAPSSKSTSGGTAALGCLVKDYFPEPVTVSWNSGALTSGVHTFPAVLQSSGLYSLSSVVTVPSSSLGTQTYICNVNHKPSNTKVDKKVEPKSCDKTHTCPPCPAPEAAGGPSVFLFPPKPKDTLMISRTPEVTCVVVSVSHEDPEVKFNWYVDGVEVHNAKTKPREEQYNSTYRVVSVLTVLHQDWLNGKEYKCKVSNKALPAPIEKTISKAKGQPREPQVYVYPPSREEMTKNQVSLTCLVKGFYPSDIAVEWESNGQPENNYKTTPPVLDSDGSFALVSKLTVDKSRWQQGNVFSCSVMHEALHNRFTQKSLSLSPG
light: DIQMTQSPSSLSASVGDRVTITCRSSQSLVHSSGNTYLHWYQQKPGKAPKFLIYKVSNRFSGVPSRFSGSGSGTDFTLTISSLQPEDFATYYCSQSTHVPFTFGQGTKLEIKRTVAAPSVFIFPPSDEQLKSGTASVVCLLNNFYPREAKVQWKVDNALQSGNSQESVTEQDSKDSTYSLSSTLTLSKADYEKHKVYACEVTHQGLSSPVTKSFNRGEC
scFv-Fc: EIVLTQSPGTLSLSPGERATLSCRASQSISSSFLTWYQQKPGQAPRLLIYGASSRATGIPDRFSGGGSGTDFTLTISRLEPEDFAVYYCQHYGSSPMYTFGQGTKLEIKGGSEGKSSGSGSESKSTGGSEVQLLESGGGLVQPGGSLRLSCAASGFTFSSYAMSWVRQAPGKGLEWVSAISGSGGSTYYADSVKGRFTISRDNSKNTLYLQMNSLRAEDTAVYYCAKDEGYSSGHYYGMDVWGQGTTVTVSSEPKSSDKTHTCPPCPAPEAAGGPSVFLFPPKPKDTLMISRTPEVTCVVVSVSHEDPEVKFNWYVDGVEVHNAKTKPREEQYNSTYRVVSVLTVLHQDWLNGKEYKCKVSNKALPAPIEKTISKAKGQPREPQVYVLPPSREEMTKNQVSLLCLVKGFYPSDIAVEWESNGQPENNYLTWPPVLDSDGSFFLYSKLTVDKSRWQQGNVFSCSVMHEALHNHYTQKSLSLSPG
notes: Human IgG1; also called Vβ17-Fab×BCMA-ScFv; Vb17-B17B21-N33S-Fab-RF × BCMB519-LH-scFv; copies: 1 + 1 + 1
Consider B2, for which the results for the EC50 in [1], in [2] and in [3] were 0.122 µg/mL, 0.159 µg/mL and 0.124 µg/mL, respectively.

B3: VB28B7 (bispecific antibody)
heavy 1: not shown
light 1: DIQMTQSPASLSASVGETVTITCGASENIYGSLNWYQRKQGKSPQLLIYGATNLADGMSSRFSGSGSGRQFSLKISSLHPDDVATYYCQNLLSTPYTFGGGTKLELKRTVAAPSVFIFPPSDEQLKSGTASVVCLLNNFYPREAKVQWKVDNALQSGNSQESVTEQDSKDSTYSLSSTLTLSKADYEKHKVYACEVTHQGLSSPVTKSFNRGEC
heavy 2: not shown
light 2: DIQMTQSPASLSASVGETVTITCGASENIYGSLNWYQRKQGKSPQLLIYGATNLADGMSSRFSGSGSGRQFSLKISSLHPDDVATYYCQNLLSTPYTFGGGTKLELKRTVAAPSVFIFPPSDEQLKSGTASVVCLLNNFYPREAKVQWKVDNALQSGNSQESVTEQDSKDSTYSLSSTLTLSKADYEKHKVYACEVTHQGLSSPVTKSFNRGEC
notes: also called Vβ28B7; C28B19 × Null × BCMB519
Consider B3, for which the EC50 in experiment [4] was found to be 0.06 µg/mL; in experiment [5] it was 0.1 µg/mL; in experiment [6], 0.1 µg/mL.

B4: VB28B31 (bispecific antibody, human IgG1, kappa, L234A L235A)
scFv: not shown
heavy: QVQLQQPGSELVRPGASVKLSCKASGYTFTSYWMHWVKQRHGQGLEWIGNIYPGSGRTNYDEKFKSKGTLTVDTSSRTAYMHLSSLTSEDSAVYYCTREHYGSNSHPMDYWGQGTSVTVSSASTKGPSVFPLAPSSKSTSGGTAALGCLVKDYFPEPVTVSWNSGALTSGVHTFPAVLQSSGLYSLSSVVTVPSSSLGTQTYICNVNHKPSNTKVDKKVEPKSCDKTHTCPPCPAPEAAGGPSVFLFPPKPKDTLMISRTPEVTCVVVSVSHEDPEVKFNWYVDGVEVHNAKTKPREEQYNSTYRVVSVLTVLHQDWLNGKEYKCKVSNKALPAPIEKTISKAKGQPREPQVYTLPPSREEMTKNQVSLSCAVKGFYPSDIAVEWESNGQPENNYKTTPPVLDSDGSFFLVSKLTVDKSRWQQGNVFSCSVMHEALHNRFTQKSLSLSPGK
light: DIQMTQSPASLSASVGETVTITCGASENIYGSLNWYQRKQGKSPQLLIYGATNLADGMSSRFSGSGSGRQFSLKISSLHPDDVATYYCQNLLSTPYTFGGGTKLELKRTVAAPSVFIFPPSDEQLKSGTASVVCLLNNFYPREAKVQWKVDNALQSGNSQESVTEQDSKDSTYSLSSTLTLSKADYEKHKVYACEVTHQGLSSPVTKSFNRGEC
notes: PSMA × CD28, human IgG1; also called Vβ28B31
Turning to B4, the EC50 in experiment [7] was found to be 1.29 µg/mL; in experiment [8], 0.95 µg/mL; in [9], 1.22 µg/mL; in experiment [10], 0.15 µg/mL.

B5: VB28B38 (bispecific antibody, human IgG1, kappa, L234A L235A)
scFv: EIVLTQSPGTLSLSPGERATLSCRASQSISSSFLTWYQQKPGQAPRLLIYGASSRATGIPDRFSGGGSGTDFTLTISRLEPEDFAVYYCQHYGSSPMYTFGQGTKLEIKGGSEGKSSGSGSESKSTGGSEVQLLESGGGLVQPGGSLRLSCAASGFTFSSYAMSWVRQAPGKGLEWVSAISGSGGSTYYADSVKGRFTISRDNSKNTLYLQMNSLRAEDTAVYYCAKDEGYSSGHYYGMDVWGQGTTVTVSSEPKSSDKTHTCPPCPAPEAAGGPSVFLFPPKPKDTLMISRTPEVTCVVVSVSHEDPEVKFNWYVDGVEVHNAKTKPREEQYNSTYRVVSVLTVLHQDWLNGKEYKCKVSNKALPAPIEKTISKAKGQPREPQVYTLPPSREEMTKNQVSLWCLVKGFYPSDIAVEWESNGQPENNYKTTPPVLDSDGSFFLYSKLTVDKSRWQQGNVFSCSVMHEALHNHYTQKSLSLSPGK
heavy: QVQLQQPGSELVRPGASVKLSCKASGYTFTSYWMHWVKQRHGQGLEWIGNIYPGSGRTNYDEKFKSKGTLTVDTSSRTAYMHLSSLTSEDSAVYYCTREHYGSNSHPMDYWGQGTSVTVSSASTKGPSVFPLAPSSKSTSGGTAALGCLVKDYFPEPVTVSWNSGALTSGVHTFPAVLQSSGLYSLSSVVTVPSSSLGTQTYICNVNHKPSNTKVDKKVEPKSCDKTHTCPPCPAPEAAGGPSVFLFPPKPKDTLMISRTPEVTCVVVSVSHEDPEVKFNWYVDGVEVHNAKTKPREEQYNSTYRVVSVLTVLHQDWLNGKEYKCKVSNKALPAPIEKTISKAKGQPREPQVYTLPPSREEMTKNQVSLSCAVKGFYPSDIAVEWESNGQPENNYKTTPPVLDSDGSFFLVSKLTVDKSRWQQGNVFSCSVMHEALHNRFTQKSLSLSPGK
light: DIQMTQSPASLSASVGETVTITCGASENIYGSLNWYQRKQGKSPQLLIYGATNLADGMSSRFSGSGSGRQFSLKISSLHPDDVATYYCQNLLSTPYTFGGGTKLELKRTVAAPSVFIFPPSDEQLKSGTASVVCLLNNFYPREAKVQWKVDNALQSGNSQESVTEQDSKDSTYSLSSTLTLSKADYEKHKVYACEVTHQGLSSPVTKSFNRGEC
notes: BCMA × CD28, human IgG1; also called Vβ28B38
As for B5, the EC50 in experiment [11] was 1.08 µg/mL; in experiment [12] it was less than 0.0046 µg/mL; in experiment [13], less than 0.0046 µg/mL; in experiment [14], 1.27 µg/mL.

B6: VB28B33 (bispecific antibody)
scFv: not shown
heavy: QVQLQQPGSELVRPGASVKLSCKASGYTFTSYWMHWVKQRHGQGLEWIGNIYPGSGRTNYDEKFKSKGTLTVDTSSRTAYMHLSSLTSEDSAVYYCTREHYGSNSHPMDYWGQGTSVTVSSASTKGPSVFPLAPSSKSTSGGTAALGCLVKDYFPEPVTVSWNSGALTSGVHTFPAVLQSSGLYSLSSVVTVPSSSLGTQTYICNVNHKPSNTKVDKKVEPKSCDKTHTCPPCPAPEAAGGPSVFLFPPKPKDTLMISRTPEVTCVVVSVSHEDPEVKFNWYVDGVEVHNAKTKPREEQYNSTYRVVSVLTVLHQDWLNGKEYKCKVSNKALPAPIEKTISKAKGQPREPQVYTLPPSREEMTKNQVSLSCAVKGFYPSDIAVEWESNGQPENNYKTTPPVLDSDGSFFLVSKLTVDKSRWQQGNVFSCSVMHEALHNRFTQKSLSLSPGK
light: DIQMTQSPSSLSASVGDRVTITCRSSQSLVHSSGNTYLHWYQQKPGKAPKFLIYKVSNRFSGVPSRFSGSGSGTDFTLTISSLQPEDFATYYCSQSTHVPFTFGQGTKLEIKGGSEGKSSGSGSESKSTGGSQVQLQESGPGLVKPSETLSLTCTVSGYSITSGYFWNWIRQPPGKGLEWIGYISYDGSNNYNPSLKSRVTISRDTSKNQFSLKLSSVTAADTAVYYCASPSPGTGYAVDYWGQGTLVTVSSGGSEGKSSGSGSESKSTGGSDIQMTQSPASLSASVGETVTITCGASENIYGSLNWYQRKQGKSPQLLIYGATNLADGMSSRFSGSGSGRQFSLKISSLHPDDVATYYCQNLLSTPYTFGGGTKLELKRTVAAPSVFIFPPSDEQLKSGTASVVCLLNNFYPREAKVQWKVDNALQSGNSQESVTEQDSKDSTYSLSSTLTLSKADYEKHKVYACEVTHQGLSSPVTKSFNRGEC
notes: Null × CD28 × Vβ17, human IgG1; also called Vβ28B33
With B6, the results for the half-maximal effective concentration (EC50) in experiment [8], in [15] and in experiment [11] were greater than 10 µg/mL, 1.4 µg/mL and greater than 10 µg/mL, respectively.

B7: VB28B36 (bispecific antibody)
scFv: not shown
heavy: QVQLQQPGSELVRPGASVKLSCKASGYTFTSYWMHWVKQRHGQGLEWIGNIYPGSGRTNYDEKFKSKGTLTVDTSSRTAYMHLSSLTSEDSAVYYCTREHYGSNSHPMDYWGQGTSVTVSSASTKGPSVFPLAPSSKSTSGGTAALGCLVKDYFPEPVTVSWNSGALTSGVHTFPAVLQSSGLYSLSSVVTVPSSSLGTQTYICNVNHKPSNTKVDKKVEPKSCDKTHTCPPCPAPEAAGGPSVFLFPPKPKDTLMISRTPEVTCVVVSVSHEDPEVKFNWYVDGVEVHNAKTKPREEQYNSTYRVVSVLTVLHQDWLNGKEYKCKVSNKALPAPIEKTISKAKGQPREPQVYTLPPSREEMTKNQVSLSCAVKGFYPSDIAVEWESNGQPENNYKTTPPVLDSDGSFFLVSKLTVDKSRWQQGNVFSCSVMHEALHNRFTQKSLSLSPGK
light: not shown
notes: Null × CD28 × BCMA, human IgG1; also called Vβ28B36
As to B7, the concentration for a half-maximal effect (EC50) in experiment [12] and in experiment [13] was less than 0.0046 µg/mL throughout.
